According to paper PMC11589680 (Nature Communications, 2024):

B1: GST-SNX17 CT (GST-tagged tail peptide, last 20 residues of SNX17) (peptide)
chain: ASASDVHGNFAFEGIGDEDL
B2: GST-SNX17 (natural protein)
chain: MHFSIPETESRSGDSGGSAYVAYNIHVNGVLHCRVRYSQLLGLHEQLRKEYGANVLPAFPPKKLFSLTPAEVEQRREQLEKYMQAVRQDPLLGSSETFNSFLRRAQQETQQVPTEEVSLEVLLSNGQKVLVNVLTSDQTEDVLEAVAAKLDLPDDLIGYFSLFLVREKEDGAFSFVRKLQEFELPYVSVTSLRSQEYKIVLRKSYWDSAYDDDVMENRVGLNLLYAQTVSDIERGWILVTKEQHRQLKSLQEKVSKKEFLRLAQTLRHYGYLRFDACVADFPEKDCPVVVSAGNSELSLQLRLPGQQLREGSFRVTRMRCWRVTSSVPLPSGSTSSPGRGRGEVRLELAFEYLMSKDRLQWVTITSPQAIMMSICLQSMVDELMVKKSGGSIRKMLRRRVGGTLRRSDSQQAVKSPPLLESPDATRESMVKLSSKLSAVSLRGIGSPSTDASASDVHGNFAFEGIGDEDL
B3: untagged full-length SNX17 (natural protein)
chain: B2 chain
B4: GST-SNX17 CT tail, −6 position to V (peptide)
chain: ASASDVHGNFAFEGVGDEDL
B5: GST-SNX17 CT tail, −6 position to L (peptide)
chain: ASASDVHGNFAFEGLGDEDL
B6: GST-tagged CT tail of SNX31 (last 20 amino acids) (peptide)
chain: SKIKIAKDDCVFGNIKEEDL
B7: GST-tagged CT tail of PATE1 (last 20 amino acids) (peptide)
chain: SVYLVNFRCCRSHDLCNEDL
B8: GST-SNX17 CT tail, −4 position to Q (peptide)
chain: ASASDVHGNFAFEGIGQEDL
B9: GST-SNX17 CT tail, −4 position to N (peptide)
chain: ASASDVHGNFAFEGIGNEDL
B10: GST-tagged CT tail of LRMDA (last 20 amino acids) (peptide)
chain: RYVYYGKNSEGNRFIRDDQL

What follows are binders tested against T1, Retriever complex (VPS35L, VPS26C, VPS29) (human, UniProt Q7Z3J2;O14972;Q9UBQ0-2) (assay: equilibrium pull-down).
T1 sequence (Q7Z3J2 whole entry, chain 1 of 2): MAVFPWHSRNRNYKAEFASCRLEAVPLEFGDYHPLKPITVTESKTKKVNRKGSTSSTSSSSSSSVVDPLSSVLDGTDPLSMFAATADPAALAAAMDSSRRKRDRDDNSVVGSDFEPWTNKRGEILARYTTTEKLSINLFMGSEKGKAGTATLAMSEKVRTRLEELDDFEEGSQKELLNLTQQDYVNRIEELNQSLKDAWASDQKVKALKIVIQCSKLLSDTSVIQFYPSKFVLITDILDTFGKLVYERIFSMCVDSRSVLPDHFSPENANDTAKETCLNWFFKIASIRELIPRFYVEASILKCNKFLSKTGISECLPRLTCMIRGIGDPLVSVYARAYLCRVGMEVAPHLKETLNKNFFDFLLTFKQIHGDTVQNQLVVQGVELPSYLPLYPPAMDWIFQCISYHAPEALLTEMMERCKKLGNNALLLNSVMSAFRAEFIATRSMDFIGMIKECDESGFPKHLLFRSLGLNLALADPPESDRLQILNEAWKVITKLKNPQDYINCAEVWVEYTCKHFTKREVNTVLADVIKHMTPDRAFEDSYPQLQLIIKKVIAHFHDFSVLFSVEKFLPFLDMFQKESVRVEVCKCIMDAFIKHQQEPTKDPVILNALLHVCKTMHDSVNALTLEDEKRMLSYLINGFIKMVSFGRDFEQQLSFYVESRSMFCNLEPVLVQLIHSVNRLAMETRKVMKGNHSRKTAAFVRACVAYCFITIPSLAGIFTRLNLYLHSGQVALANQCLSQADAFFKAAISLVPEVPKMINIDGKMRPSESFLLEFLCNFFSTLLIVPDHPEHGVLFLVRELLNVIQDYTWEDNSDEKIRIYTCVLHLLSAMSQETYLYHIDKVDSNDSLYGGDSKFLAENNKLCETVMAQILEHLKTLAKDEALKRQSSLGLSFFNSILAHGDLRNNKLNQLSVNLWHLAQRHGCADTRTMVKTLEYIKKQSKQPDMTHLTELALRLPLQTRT
T1 sequence (O14972 whole entry, chain 2 of 2): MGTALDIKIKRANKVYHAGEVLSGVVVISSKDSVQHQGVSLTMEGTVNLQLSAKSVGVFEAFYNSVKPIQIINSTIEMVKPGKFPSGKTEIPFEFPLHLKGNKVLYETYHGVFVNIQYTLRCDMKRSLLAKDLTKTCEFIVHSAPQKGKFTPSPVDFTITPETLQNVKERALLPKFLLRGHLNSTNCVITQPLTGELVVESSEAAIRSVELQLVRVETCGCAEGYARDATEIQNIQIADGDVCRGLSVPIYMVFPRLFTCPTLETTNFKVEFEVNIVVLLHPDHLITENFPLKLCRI
B1 gave a Kd of ~110 nM.

Each binder was assayed against T1, Retriever complex (VPS35L, VPS26C, …) (assay: pull-down).
B2: binds. B3: binds. B4: binds. B5: binds. B6: binds. B7: binds. B8: binds. B9: binds. B10: binds.
